Results on one variant are retold here after FireProtDB (doi:10.1073/pnas.0908565107).

B1: Alanine--glyoxylate aminotransferase, P21549 (parent)
chain: MASHKLLVTPPKALLKPLSIPNQLLLGPGPSNLPPRIMAAGGLQMIGSMSKDMYQIMDEIKEGIQYVFQTRNPLTLVISGSGHCALEAALVNVLEPGDSFLVGANGIWGQRAVDIGERIGARVHPMTKDPGGHYTLQEVEEGLAQHKPVLLFLTHGESSTGVLQPLDGFGELCHRYKCLLLVDSVASLGGTPLYMDRQGIDILYSGSQKALNAPPGTSLISFSDKAKKKMYSRKTKPFSFYLDIKWLANFWGCDDQPRMYHHTIPVISLYSLRESLALIAEQGLENSWRQHREAAAYLHGRLQALGLQLFVKDPALRLPTVTTVAVPAGYDWRDIVSYVIDHFDIEIMGGLGPSTGKVLRIGLLGCNATRENVDRVTEALRAALQHCPKKKL

Variants of B1 are the subject of this data set. To be noted: Homo sapiens; pH 7.4; Thermal; DSC; Potassium phosphate 100 mM; structure 1H0C; whole UniProt chain shown.
As usually defined, the Tm is the temperature at which the thermal transition is half complete. For the variant MASHKLLVTPPKALLKPLSIPNQLLLGPGPSNLPPRIMAAVGLQMIGSMSKDMYQIMDEIKEGIQYVFQTRNPLTLVISGSGHCALEAALVNVLEPGDSFLVGANGIWGQRAVDIGERIGARVHPMTKDPGGHYTLQEVEEGLAQHKPVLLFLTHGESSTGVLQPLDGFGELCHRYKCLLLVDSVASLGGTPLYMDRQGIDILYSGSQKALNAPPGTSLISFSDKAKKKMYSRKTKPFSFYLDIKWLANFWGCDDQPRMYHHTIPVISLYSLRESLALIAEQGLENSWRQHREAAAYLHGRLQALGLQLFVKDPALRLPTVTTVAVPAGYDWRDIVSYVIDHFDIEIMGGLGPSTGKVLRIGLLGCNATRENVDRVTEALRAALQHCPKKKL [G41V], the Tm was 58.3 °C and the “change of melting temperature, mutant - wild type (higher = more stable)” value is -4.1 °C.
